Patent publication US20260274936A1

Legend:
[1] = molecular target: human neonatal Fc-receptor (FcRn) (human) (UniProt P55899); assay: FcRn affinity chromatography, anti-VEGF/ANG-2 KiH antibody
[2] = molecular target: human neonatal Fc-receptor (FcRn) (human) (UniProt P55899); assay: FcRn affinity chromatography, anti-HER2 antibody
[3] = molecular target: human neonatal Fc-receptor (FcRn) (human) (UniProt P55899); assay: FcRn affinity chromatography
[4] = molecular target: human neonatal Fc-receptor (FcRn) (human) (UniProt P55899); assay: FcRn affinity chromatography; the table in the text prints 51.8 min for 'none'

Substance	retention time on FcRn affinity column [1]	retention time [2]	also measured
bispecific anti-VEGF/ANG-2 antibody (knobs-into-holes), one chain with L251D/L314D/L432D (bispecific antibody)	46.3 min		
anti-HER2 antibody, N434H (symmetrically modified)		52 min	
anti-HER2 antibody, K288E (symmetrically modified)		45.2 min	
molecule with IgG1 Fc-region L234A/L235A/P329G and Y436A (symmetric) (antibody)			FcRn-affinity column retention time [3]: 41.3 min
anti-HER2 antibody, D98E (symmetrically modified)		46.2 min	
bispecific anti-VEGF/ANG-2 antibody (knobs-into-holes), one chain with I253A (bispecific antibody)	48.8 min		
bispecific anti-VEGF/ANG-2 antibody (knobs-into-holes), FcRn affecting mutation: none (bispecific antibody)	51.8 min		RT [4]: 52.8 min

The next lines start with results.

retention time on FcRn affinity column [1]	retention time [2]	Substance	also measured
	46.2 min	anti-HER2 antibody, K290H (symmetrically modified)	
48.8 min		bispecific anti-VEGF/ANG-2 antibody (knobs-into-holes), one chain with H435A (bispecific antibody)	
	45.6 min	anti-HER2 antibody, E258H (symmetrically modified)	
46.7 min		bispecific anti-VEGF/ANG-2 antibody (knobs-into-holes), one chain with H310A/H433A/Y436A (bispecific antibody)	
48.4 min		bispecific anti-VEGF/ANG-2 antibody (knobs-into-holes), one chain with H310A (bispecific antibody)	
56.2 min		bispecific anti-VEGF/ANG-2 antibody (knobs-into-holes), one chain with M252Y/S254T/T256E (bispecific antibody)	
	41.4 min	anti-HER2 antibody, R255D (symmetrically modified)	
	45.5 min	anti-HER2 antibody, L309H (symmetrically modified)	
